Patent US10227388B2, “Peptides and combination of peptides for use in immunotherapy against non-small cell lung cancer and other cancers” (immatics biotechnologies GmbH, priority 2015, dated 2019)

Molecular target: HLA-A*02:01 (Homo sapiens, UniProt P04439, D140Y/D185E/D98H/E176V/E277Q/G131W/G231S/I119V/I121R/I166T/I218V/L300P/L318F/N151K/N90K/P208A/P217A/Q86G/Q94H/R138H/R169H/T345S)
Assay: MHC binding assay (UV-ligand exchange, ELISA, peptide exchange yield)
Details: binding of HLA-class I restricted peptides to HLA-A*02:01
In short: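 Exchange yield was quantified as stabilized β2m-containing complex: monomers diluted 100-fold bound to streptavidin-coated wells, probed with HRP-conjugated anti-β2m, read at 450 nm after TMB. Complexes had been generated by UV cleavage of a photolabile ligand and replacement with the candidate peptide.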

Substance	Peptide exchange (MHC class I binding score, peptide exchange yield)
524 (ALIENLTHQI; listed as Homo sapiens) [compound 524]	″++″ (≥20% = ++)
81 (FLFSQLQYL; listed as Homo sapiens) [compound 81]	″++″ (≥20% = ++)
578 (FLDPGGPMMKL; listed as Homo sapiens) [compound 578]	″+++″ (≥50% = +++)
173 (LLDSASAGLYL; listed as Homo sapiens) [compound 173]	″+++″ (≥50% = +++)
328 (ALNDQVFEI; listed as Homo sapiens) [compound 328]	″+++″ (≥50% = +++)
589 (KLYPQLPAEI; listed as Homo sapiens) [compound 589]	″+++″ (≥50% = +++)
52 (FLLAHGLGFLL; listed as Homo sapiens) [compound 52]	″++++″ (≥75% = ++++)
563 (WLLPYNGVTV; listed as Homo sapiens) [compound 563]	″+++″ (≥50% = +++)
270 (LLLDEEGTFSL; listed as Homo sapiens) [compound 270]	″++″ (≥20% = ++)
341 (SQIALNEKLVNL; listed as Homo sapiens) [compound 341]	″+++″ (≥50% = +++)
382 (ALQNYIKEA; listed as Homo sapiens) [compound 382]	″++″ (≥20% = ++)
101 (ILVGGGALATV; listed as Homo sapiens) [compound 101]	″+++″ (≥50% = +++)
515 (LLQELVLFL; listed as Homo sapiens) [compound 515]	″+++″ (≥50% = +++)
348 (ILLDVKTRL; listed as Homo sapiens) [compound 348]	″++++″ (≥75% = ++++)
226 (MLYVVPIYL; listed as Homo sapiens) [compound 226]	″++″ (≥20% = ++)
14 (AAYGGLNEKSFV; listed as Homo sapiens) [compound 14]	″+++″ (≥50% = +++)
186 (TLFFQQNAL; listed as Homo sapiens) [compound 186]	″++″ (≥20% = ++)
403 (KLYDRILRV; listed as Homo sapiens) [compound 403]	″++″ (≥20% = ++)
608 (SLLSVSHAL; listed as Homo sapiens) [compound 608]	″+++″ (≥50% = +++)
560 (ALWDIETGQQTTT; listed as Homo sapiens) [compound 560]	″+++″ (≥50% = +++)
1 (SLMEPPAVLLL; listed as Homo sapiens) [compound 1]	″+++″ (≥50% = +++)

Substance	Peptide exchange (MHC class I binding score, peptide exchange yield)
495 (FIFSEKPVFV; listed as Homo sapiens) [compound 495]	″+++″ (≥50% = +++)
182 (MLLEAPGIFL; listed as Homo sapiens) [compound 182]	″+++″ (≥50% = +++)
265 (LLFGGTKTV; listed as Homo sapiens) [compound 265]	″++″ (≥20% = ++)
469 (YLASDEITTV; listed as Homo sapiens) [compound 469]	″+++″ (≥50% = +++)
313 (VLFDDELLMV; listed as Homo sapiens) [compound 313]	″+++″ (≥50% = +++)
584 (ALAEVAAMENV; listed as Homo sapiens) [compound 584]	″+++″ (≥50% = +++)
103 (TLAEEVVAL; listed as Homo sapiens) [compound 103]	″+++″ (≥50% = +++)
537 (TLAPGEVLRSV; listed as Homo sapiens) [compound 537]	″+++″ (≥50% = +++)
46 (ILTEENIHL; listed as Homo sapiens) [compound 46]	″+++″ (≥50% = +++)
468 (YLRSVGDGETV; listed as Homo sapiens) [compound 468]	″+++″ (≥50% = +++)
41 (SLMPHIPGL; listed as Homo sapiens) [compound 41]	″+++″ (≥50% = +++)
194 (ALPLFVITV; listed as Homo sapiens) [compound 194]	″+++″ (≥50% = +++)
498 (KLWTGGLDNTV; listed as Homo sapiens) [compound 498]	″+++″ (≥50% = +++)
281 (ILRESTEEL; listed as Homo sapiens) [compound 281]	″+++″ (≥50% = +++)
332 (YLISELEAA; listed as Homo sapiens) [compound 332]	″+++″ (≥50% = +++)
231 (FLSPQQPPLLL; listed as Homo sapiens) [compound 231]	″++″ (≥20% = ++)
192 (KMLDGASFTL; listed as Homo sapiens) [compound 192]	″+++″ (≥50% = +++)
61 (FLQGYQLHL; listed as Homo sapiens) [compound 61]	″++++″ (≥75% = ++++)
212 (ALWDQDNLSV; listed as Homo sapiens) [compound 212]	″++″ (≥20% = ++)
196 (YLYSVEIKL; listed as Homo sapiens) [compound 196]	″++++″ (≥75% = ++++)
255 (VLASYNLTV; listed as Homo sapiens) [compound 255]	″+++″ (≥50% = +++)

Substance	Peptide exchange (MHC class I binding score, peptide exchange yield)
282 (LLADVVPTT; listed as Homo sapiens) [compound 282]	″+++″ (≥50% = +++)
13 (YLMDESLNL; listed as Homo sapiens) [compound 13]	″+++″ (≥50% = +++)
157 (SLNDEVPEV; listed as Homo sapiens) [compound 157]	″++″ (≥20% = ++)
181 (LLWAGTAFQV; listed as Homo sapiens) [compound 181]	″+++″ (≥50% = +++)
595 (VLLSIYPRV; listed as Homo sapiens) [compound 595]	″+++″ (≥50% = +++)
518 (KLNAEVACV; listed as Homo sapiens) [compound 518]	″+++″ (≥50% = +++)
514 (ILVDWLVQV; listed as Homo sapiens) [compound 514]	″+++″ (≥50% = +++)
183 (FGLDLVTEL; listed as Homo sapiens) [compound 183]	″+++″ (≥50% = +++)
317 (SLAALVVHV; listed as Homo sapiens) [compound 317]	″+++″ (≥50% = +++)
594 (IMLKGDNITL; listed as Homo sapiens) [compound 594]	″+++″ (≥50% = +++)
131 (FVPPVTVFPSL; listed as Homo sapiens) [compound 131]	″++″ (≥20% = ++)
618 (VLFDSESIGIYV; listed as Homo sapiens) [compound 618]	″+++″ (≥50% = +++)
130 (FLWNGEDSALL; listed as Homo sapiens) [compound 130]	″+++″ (≥50% = +++)
455 (SLLKEPQKVQL; listed as Homo sapiens) [compound 455]	″++″ (≥20% = ++)
16 (VLFQGQASL; listed as Homo sapiens) [compound 16]	″+++″ (≥50% = +++)
277 (LLPPLESLATV; listed as Homo sapiens) [compound 277]	″++″ (≥20% = ++)
555 (YVLEGLKSV; listed as Homo sapiens) [compound 555]	″+++″ (≥50% = +++)
487 (LLINSVFHV; listed as Homo sapiens) [compound 487]	″+++″ (≥50% = +++)
279 (ALWGGTQPLL; listed as Homo sapiens) [compound 279]	″++″ (≥20% = ++)
